Results: PMC12001206, “Characterization of multiple binding sites on microtubule associated protein 2c recognized by dimeric and monomeric 14‐3‐3ζ” (The Febs Journal, 2025)
“And” between values parts separate entries of the source, which are not always exact repeats. Equal entries are not always repeated. Where two headings read alike, the source gives them in different places. One block for each molecule: values may come before it. Square brackets hold non-standard residues; d marks the D form. Ends that are not written are not given here. pS = N[C@@H](COP(=O)(O)O)C(=O)O

T1: MAP2c fully phosphorylated by PKA (rat, UniProt P15146-3 1-467, almost complete phosphorylation at Ser184, Thr220, and Ser435)
T1 construct: microtubule-associated protein 2c (MAP2c), rat, 467 residues, UniProt A6KFC7; 15N,13C-labelled for the HNCO experiments; also called MP‐MAP2c; source: MAP2c expressed and purified as described earlier, incubated overnight with PKA at 27 °C, purified on HiTrap SP
T1 sequence (looked up): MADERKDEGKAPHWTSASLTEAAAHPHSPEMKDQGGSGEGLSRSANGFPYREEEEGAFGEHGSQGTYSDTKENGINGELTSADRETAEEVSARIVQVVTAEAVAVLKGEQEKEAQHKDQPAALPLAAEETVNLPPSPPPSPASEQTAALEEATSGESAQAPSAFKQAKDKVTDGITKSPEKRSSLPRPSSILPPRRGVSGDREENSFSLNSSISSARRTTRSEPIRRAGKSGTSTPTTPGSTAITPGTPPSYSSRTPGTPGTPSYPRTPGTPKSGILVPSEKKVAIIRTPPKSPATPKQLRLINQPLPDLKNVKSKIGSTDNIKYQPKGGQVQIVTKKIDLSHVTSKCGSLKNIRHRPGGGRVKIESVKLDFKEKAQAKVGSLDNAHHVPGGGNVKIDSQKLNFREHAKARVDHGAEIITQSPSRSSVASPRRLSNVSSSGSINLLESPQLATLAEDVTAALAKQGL

T2: MAP2c phosphorylated selectively by PKA at Ser435 (rat, UniProt P15146-3 1-467, phosphoserine at 435)
T2 construct: microtubule-associated protein 2c (MAP2c), rat, 467 residues, UniProt A6KFC7; 15N,13C-labelled for the HNCO experiments; also called SP‐MAP2c; source: MAP2c expressed and purified as described earlier, incubated with PKA for 1 h at 27 °C, purified on HiTrap SP
T2 sequence (looked up): T1 sequence (looked up)

T3: unphosphorylated MAP2c (microtubule associated protein 2c) (rat, UniProt P15146-3 1-467)
T3 construct: microtubule-associated protein 2c (MAP2c), rat, 467 residues, UniProt A6KFC7; 15N,13C-labelled (M9 medium) for the HNCO experiments; also called UP‐MAP2c
T3 sequence (looked up): T1 sequence (looked up)

T4: monomeric 14‐3‐3ζ‐L12E/M78K/C25A/C189A, P63104
T4 chain: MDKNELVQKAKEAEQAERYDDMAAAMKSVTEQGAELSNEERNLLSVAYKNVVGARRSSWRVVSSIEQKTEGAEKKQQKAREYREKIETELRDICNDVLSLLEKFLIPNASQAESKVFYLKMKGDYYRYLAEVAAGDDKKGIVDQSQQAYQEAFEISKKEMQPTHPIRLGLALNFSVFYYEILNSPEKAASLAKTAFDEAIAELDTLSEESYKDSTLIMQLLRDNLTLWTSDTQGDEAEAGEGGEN

B1: dimeric pseudo wild‐type 14‐3‐3ζ (14‐3‐3ζ C25A/C189A) (natural protein)
chain: SVDMDKNELVQKAKLAEQAERYDDMAAAMKSVTEQGAELSNEERNLLSVAYKNVVGARRSSWRVVSSIEQKTEGAEKKQQMAREYREKIETELRDICNDVLSLLEKFLIPNASQAESKVFYLKMKGDYYRYLAEVAAGDDKKGIVDQSQQAYQEAFEISKKEMQPTHPIRLGLALNFSVFYYEILNSPEKAASLAKTAFDEAIAELDTLSEESYKDSTLIMQLLRDNLTLWTSDTQGDEAEAGEGGEN
notes: additional residues at the N-terminus; 14-3-3ζ, residues 1-245, UniProt P63104; C25A and C189A count on P63104; The results speak of '230 residues examined' in the crystals, the methods of residues 1-245 plus SVD; also called d14‐3‐3ζ; dimeric 14‐3‐3ζ
B2: MAP2c microtubule binding domain fragment, residues 300–399 (domain or fragment, rat, UniProt P15146-3 300-399, looked up)
chain: LRLINQPLPDLKNVKSKIGSTDNIKYQPKGGQVQIVTKKIDLSHVTSKCGSLKNIRHRPGGGRVKIESVKLDFKEKAQAKVGSLDNAHHVPGGGNVKIDS
notes: MAP2c, rat, UniProt A6KFC7, residues 300-399, containing the MTBD; also called UP‐(300–399); MTBD; source: cloned into pET28a (NcoI, BamHI); expressed in M9 medium (15N,13C) and purified by the same protocol as MAP2c
B3: unphosphorylated MAP2c fragment 300–467 (MTBD and CTD) (domain or fragment, rat, UniProt P15146-3 300-467, looked up)
chain: LRLINQPLPDLKNVKSKIGSTDNIKYQPKGGQVQIVTKKIDLSHVTSKCGSLKNIRHRPGGGRVKIESVKLDFKEKAQAKVGSLDNAHHVPGGGNVKIDSQKLNFREHAKARVDHGAEIITQSPSRSSVASPRRLSNVSSSGSINLLESPQLATLAEDVTAALAKQGL
notes: MAP2c, rat, UniProt A6KFC7, residues 300-467, covering MTBD and CTD; also called UP‐(300–467); source: cloned into pET28a (NcoI, BamHI); expressed and purified by the same protocol as MAP2c
B4: MAP2c fragment 300–467 phosphorylated by PKA on Ser435 (domain or fragment, rat, UniProt P15146-3 300-467, looked up)
chain: B3 chain
modifications: phosphoserine at 435
notes: MAP2c, rat, UniProt A6KFC7, residues 300-467, covering MTBD and CTD; also called SP‐(300–467); source: cloned into pET28a; expressed and purified by the same protocol as MAP2c; incubated overnight with PKA at 27 °C
B5: monomeric 14‐3‐3ζ‐L12E/M78K/C25A/C189A, P63104 1-245 (natural protein)
chain: T4 chain
B6: peptide corresponding to residues 333–362 of MAP2c (peptide)
peptide: QIVTKKIDLSHVTSKCGSLKNIRHRPGGGR
notes: source: synthetic peptide, ordered from Clonestar
B7: phosphopeptide corresponding to residues 432–439 of MAP2c (peptide)
peptide: RRL[pS]NVSS
notes: as for B6

Experiments:
[1] = target: MAP2c phosphorylated selectively by PKA at Ser435 (rat) (UniProt P15146); test: NMR titration; 31P 1D NMR; 60 μM SP-MAP2c or MP-MAP2c with 12.5-300 μM d14-3-3ζ or 12.5-200 μM m14-3-3ζ; chemical shift changes fitted; apparent KD
[2] = target: MAP2c phosphorylated selectively by PKA at Ser435 (rat) (UniProt P15146); test: ITC; 14-3-3ζ (d: 2.9-3 mM; m: 1.5 mM) injected into the cell with 90 μM MAP2c or 220 μM fragment 300-467; 27 °C; 50 mM MOPS, 100 mM NaCl, 4 mM β-mercaptoethanol; one set of sites; apparent KD
[3] = target: unphosphorylated MAP2c (microtubule associated protein 2c) (rat) (UniProt P15146); test: cross-linking; DSBU (200 μM) cross-linking, SDS/PAGE and LC-MS/MS; 20 μM UP-/MP-MAP2c with 80 μM d14-3-3ζ or m14-3-3ζ, or 80 μM d14-3-3ζ with 100 or 400 μM UP-(333-362); PBS, 1 mM TCEP, 37 °C
[4] = target: T1, MAP2c fully phosphorylated by PKA; test: as above
[5] = target: T1, MAP2c fully phosphorylated by PKA; test: ITC; 14-3-3ζ (d: 2.9-3 mM; m: 1.5 mM) injected into the cell with 90 μM MAP2c or 220 μM fragment 300-467; 27 °C; 50 mM MOPS, 100 mM NaCl, 4 mM β-mercaptoethanol; one set of sites; apparent KD
[6] = target: T2, MAP2c phosphorylated selectively by PKA …; test: NMR titration; 31P 1D NMR; 60 μM SP-MAP2c or MP-MAP2c with 12.5-300 μM d14-3-3ζ or 12.5-200 μM m14-3-3ζ; chemical shift changes fitted; apparent KD; settings: both partners purified
[7] = target: T3, unphosphorylated MAP2c (microtubule …); test: cross-linking; DSBU (200 μM) cross-linking, SDS/PAGE and LC-MS/MS; 20 μM UP-/MP-MAP2c with 80 μM d14-3-3ζ or m14-3-3ζ, or 80 μM d14-3-3ζ with 100 or 400 μM UP-(333-362); PBS, 1 mM TCEP, 37 °C; settings: both partners purified
[8] = target: the molecule itself; test: as above
[9] = target: T3, unphosphorylated MAP2c (microtubule …); test: ITC; 14-3-3ζ (d: 2.9-3 mM; m: 1.5 mM) injected into the cell with 90 μM MAP2c or 220 μM fragment 300-467; 27 °C; 50 mM MOPS, 100 mM NaCl, 4 mM β-mercaptoethanol; one set of sites; apparent KD; settings: both partners purified
[10] = target: T2, MAP2c phosphorylated selectively by PKA …; test: as above; settings: both partners purified
[11] = target: B1; test: NMR titration; 3D HNCO peak broadening; 350 μM 15N,13C-UP-(300-399) with 350 μM d14-3-3ζ; 27 °C; NMR buffer; settings: both partners purified
[12] = target: B1; test: ITC; 14-3-3ζ (d: 2.9-3 mM; m: 1.5 mM) injected into the cell with 90 μM MAP2c or 220 μM fragment 300-467; 27 °C; 50 mM MOPS, 100 mM NaCl, 4 mM β-mercaptoethanol; one set of sites; apparent KD; settings: both partners purified
[13] = target: T4, monomeric 14‐3‐3ζ‐L12E/M78K/C25A/C189A, …; test: ITC; free m14-3-3ζ titrated into ITC buffer; heat of dissociation; dimer to monomers; settings: remark: other sources report otherwise
[14] = target: T4, monomeric 14‐3‐3ζ‐L12E/M78K/C25A/C189A, …; test: native gel or EMSA; native PAGE; 100 μM d14-3-3ζ or m14-3-3ζ with 0-400 μM MP-MAP2c, 15 min at room temperature; 10% gel, 25 mM Tris, 192 mM glycine, 4 °C; settings: remark: other sources report otherwise
[15] = target: B1; test: ITC; 3 mM d14-3-3ζ injected into 160 μM SP-(432-439) or 150 μM UP-(333-362); 27 °C; 50 mM MOPS, 100 mM NaCl, 4 mM β-mercaptoethanol; n set to one in the fit; settings: both partners purified

Kd [1]: 133 µM
Kd [2]: 102 µM
dH [2]: 2.49 kcal/mol
stoichiometry N [2]: 1.51
stoichiometry N [3]: 2
stoichiometry N [4]: 2
Kd [5]: 17 µM
dH [5]: 0.765 kcal/mol
stoichiometry N [5]: 1.31
Molecule: monomeric 14‐3‐3ζ‐L12E/M78K/C25A/C189A (from UniProt P63104 1-245) (natural protein)

Molecule: B1
Kd [6]: 7.3 µM and < 15 µM
stoichiometry N [6]: 2.73 ± 0.2
stoichiometry N [7]: 2
stoichiometry N ([4]; both partners purified): 2
binding result [8]: binds
Kd [9]: 58 ± 6 µM
dH [9]: 2.72 ± 0.12 kcal/mol
stoichiometry N [9]: 1.93 ± 0.03
Kd [10]: 74 ± 21 µM
dH [10]: 2.08 ± 0.239 kcal/mol
stoichiometry N [10]: 2.68 ± 0.12
Kd ([5]; both partners purified): 21 ± 3 µM
dH ([5]; both partners purified): 1.34 ± 0.0478 kcal/mol
stoichiometry N ([5]; both partners purified): 1.99 ± 0.04

Molecule: B2
binding result [11]: binds

Molecule: B3
Kd [12]: 56 ± 8 µM

Molecule: B4
Kd [12]: 24 ± 6 µM

Molecule: B5
Kd [13]: 600 µM
percent present as a dimer at 100 μM [14]: 20%

Molecule: B6
Kd [15]: 1800 ± 100 µM

Molecule: B7
Kd [15]: 3200 ± 400 µM
